# Measured values as given in US9969998B2, “Compositions of adenosine deaminase-2 (ADA2), variants thereof and methods of using same” (Halozyme, Inc., priority 2014, dated 2018).
# Positions count from the first letter of the chain named. Numbers in names are those of the source.
# B1: S265N/K374E: ADA2 combination variant SEQ ID NO:60 (protein)
# chain: IDETRAHLLLKEKMMRLGGRLVLNTKEELANERLMTLKIAEMKEAMRTLIFPPSMHFFQAKHLIERSQVFNILRMMPKGAALHLHDIGIVTMDWLVRNVTYRPHCHICFTPRGIMQFRFAHPTPRPSEKCSKWILLEDYRKRVQNVTEFDDSLLRNFTLVTQHPEVIYTNQNVVWSKFETIFFTISGLIHYAPVFRDYVFRSMQEFYEDNVLYMEIRARLLPVYELSGEHHDEEWSVKTYQEVAQKFVETHPEFIGIKIIYNDHRSKDVAVIAESIRMAMGLRIKFPTVVAGFDLVGHEDTGHSLHDYKEALMIPAKDGVKLPYFFHAGETDWQGTSIDRNILDALMLNTTRIGHGFALSKHPAVRTYSWEKDIPIEVCPISNQVLKLVSDLRNHPVATLMATGHPMVISSDDPAMFGAKGLSYDFYEVFMGIGGMKADLRTLKQLAMNSIKYSTLLESEKNTFMEIWKKRWDKFIADVATK
# modifications: human ADA2 S262N/K371E, mature numbering
# B2: S265N/R23E: ADA2 combination variant SEQ ID NO:61 (protein)
# chain: B1 chain with R20E, E371K
# modifications: human ADA2 S262N/R20E, mature numbering
# B3: S265N/R23E/K374E: ADA2 combination variant SEQ ID NO:63 (protein)
# chain: B1 chain with R20E
# modifications: human ADA2 S262N/R20E/K371E, mature numbering
# B4: S265N/K374D: ADA2 combination variant SEQ ID NO:59 (protein)
# chain: B1 chain with E371D
# modifications: human ADA2 S262N/K371D, mature numbering
# B5: S265N/R23E/K374D: ADA2 combination variant SEQ ID NO:62 (protein)
# chain: B1 chain with R20E, E371D
# modifications: human ADA2 S262N/R20E/K371D, mature numbering
# Experiment: Heparin binding ELISA (heparin coated microtiter plate)
# Conditions: single and S265N combination variants (Table 34)
# Method: A 96-well plate was coated with 100 μL of 200 μg/mL heparin sodium salt (Calibochem, EMD Milipore, Billerica, Mass.; Cat. No. 375095) in Na2CO3 buffer (pH 9.6), overnight at 4° C. The wells were blocked with 5% milk in PBS, and washed 6 times with PBS. 3 μM of select rHuADA2 variants (see Table 20), WT rHuADA2 (positive control) and WT rHuADA1 (negative control) were added to the wells individually and incubated for 2 hours at room temperature, followed by washing 6 times with PBS. 100 μL of 1:1000 diluted horseradish peroxidase (HRP)-anti-FLAG antibody (Abcam, Cambridge, UK; Cat. No. Ab1238) was added to the wells to detect binding and incubated at room temperature for 1 hour. The ELISA reactions were developed by adding the 3,3′,5,5′-Tetramethylbenzidine (TMB) substrate solution (Pierce, Thermo Fisher Scientific, Rockford, Ill.) according the manufacturer's instructions and reading the optical density at 450 nm (OD450) on a plate reader.
row,Molecule,Heparin Binding ELISA Average OD450
1,B1,0.6
2,B2,1.03
3,B3,0.93
4,B4,0.92
5,B5,0.69

# Experiment: Kinetic assessment of adenosine deaminase activity (ammonia assay, Michaelis-Menten)
# Type: biochemical
# Conditions: pH 6.5; [E] = 8.5 nM
# Summary of the method: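 Coupled ammonia assay: rHuADA2 WT or variants (1 μg/mL, 17 nM in 2× mix) with adenosine 20 μM–20 mM, α-ketoglutarate, NADPH and GDH, at pH 7.6 or pH 6.5 (PIPES), room temperature. Michaelis-Menten fit gave Km, Vmax, kcat, kcat/Km.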
Molecule,Km [µM],Vmax [µM/min]
B1,1410,57.13
B2,1430,53.25
B3,1290,63.74
B4,1510,43.85
B5,1500,43.42

# Same assay, conditions: pH 6.5; [E] = 8.5 nM; kcat=Vmax/0.0085/60
row,Molecule,kcat [s⁻¹]
1,B1,112.02
2,B2,104.41
3,B3,124.98
4,B4,85.98
5,B5,85.14

# Same assay, conditions: pH 7.6; [E] = 8.5 nM
Molecule,Km [µM],Vmax [µM/min]
B1,2540,87.44
B2,2900,63.13
B3,2870,82.38
B4,2860,78.29
B5,3130,72.78

# Same assay, conditions: pH 7.6; [E] = 8.5 nM; kcat=Vmax/0.0085/60
row,Molecule,kcat [s⁻¹]
1,B1,171.45
2,B2,123.78
3,B3,161.53
4,B4,153.51
5,B5,142.71

# Same assay, conditions: pH 7.6 and pH 6.5
row,Molecule,kinetics properties compared to WT
1,B1,greatest improvements in catalytic activity at pH 6.5
2,B2,greatest improvements in catalytic activity at pH 6.5
3,B3,greatest improvements in catalytic activity at pH 6.5

# Experiment: Thermal stability by differential scanning fluorimetry (DSF)
# Type: physicochemical
# Conditions: 0.1-1 mg/mL protein
# Method: The stability of the rHuADA2 WT and variants was measured by differential scanning fluorimetry (DSF) at increasing temperatures. DSF measures conformational stability, which correlates with thermal stability. The melting temperature (Tm) in DSF is defined as the midpoint of the protein unfolding transition.
# Non-PEGylated WT rHuADA2, non-PEGylated rHuADA2 variants, and PEGylated forms of WT rHuADA2 and rHuADA2 variants were prepared at concentrations of 0.1-1 mg/mL and mixed with the ROX™ protein thermal shift dye (Applied Biosystems, Carlsbad, Calif.; Cat. No. 4461146) to a final dye concentration that corresponds to a 125-fold dilution of the stock ROX™ solution. Protein samples were then loaded into 96-well plate at a volume of 20 μL/well in triplicate. A ViiA7 RT-PCR System (Applied Biosystems, Carlsbad, Calif.) was used to measure the shift in fluorescence as the temperature of the samples were increased. The reactions were subjected to the following steps: incubation at 25° C. for 2 min; ramping of temperature from 25 to 99° C. at a rate of 0.05° C. per second; followed by a 99° C. incubation for 2 min. The wavelengths used for emission and excitation were 623 nanometers (nm) and 580 nm, respectively.
row,Molecule,"Tm, melting temperature by DSF [°C]"
1,B1,61.3
2,B2,59.6
3,B3,60.4
4,B4,60.8
5,B5,59.8

# Experiment: Spectrophotometric adenosine deaminase assay at varying pH (pH optimum)
# Type: biochemical
# Conditions: pH 5.5
# Method: Adenosine deaminase activity of rHuADA2 and variants at varying pH were assessed to determine the pH optimum of each. The adenosine deaminase activity was determined spectrophotometrically by direct measurement of changes in adenosine absorbance. […] During the deamination reaction, the absorbance of ADO decreases while that of INO increases with time. Since the dynamic changes in absorbance make it difficult to monitor activity at a single wavelength, the relative ADO activity was determined as a ratio of the ADO peak to isobestic point (i.e. the wavelength where ADO and INO have the same extinction coefficient). The isobestic point, which is 253 nm, remains unchanged and is concentration independent, so that it is the reference point to correct for volume or intensity discrepancies.
# To construct the standard curve for ADO and INO, a series of solution mixtures in 0.001% Tween-20 containing different concentrations of ADO and INO were prepared. The total concentration of ADO and INO mix was 50 μM, in 1×PBS (10 mM phosphate, 137 mM NaCl, 2.7 mM KCl), pH 7.4. The samples were scanned with the wavelengths between 220 nm and 300 nm to determine the isosbestic point, where all spectra cross.
# For performing the spectrophotometric adenosine deaminase assay of ADA2 and variants, a 2× solution containing 10 mM ADO in 100 mM potassium phosphate buffer (KPB), 0.1% Tween-20 at different pHs (i.e. 5.5, 6, 6.5, 6.75, 7, 7.25, 7.4, 7.75 and 8) were prepared. A separate 2× solution containing 2 μg/mL WT rHuADA2 or variants were prepared in the same 100 mM potassium phosphate buffer (KPB), 0.1% Tween-20 at the respective pH (i.e. 5.5, 6, 6.5, 6.75, 7, 7.25, 7.4, 7.75 and 8). An equal volume of the ADO solution and the ADA2 solution (wildtype or variants) were mixed to initiate reaction. At each time point (i.e. 1, 3, 5, 7, 9, 11, 13 and 15 min), a small aliquot (4 μl) was removed and diluted 50 times by adding to 196 μl 1×PBS, pH 7.4. The diluted samples were further diluted 2 fold (in duplicates) by adding 85 μl samples to 85 μl 1×PBS in a UV-transparent half area plate. The absorbance at 253 nm and 261 nm were measured of each diluted sample.
# Adenosine concentration was determined using the A261/A253 ratio and the standard curve. Adenosine deaminase activity was measured by negative change in ADO concentration per min×100.
row,Molecule,Adenosine deaminase activity Δ [ADO]/min × (−100)
1,B1,31.84
2,B2,27.34
3,B3,37.94
4,B4,22.89
5,B5,20.27

# Same assay, conditions: pH 6
row,Molecule,Adenosine deaminase activity Δ [ADO]/min × (−100)
1,B1,44.31
2,B2,38.26
3,B3,52.70
4,B4,33.51
5,B5,28.16

# Same assay, conditions: pH 6.5
row,Molecule,Adenosine deaminase activity Δ [ADO]/min × (−100)
1,B1,50.23
2,B2,45.58
3,B3,66.08
4,B4,39.06
5,B5,35.51

# Same assay, conditions: pH 6.75
row,Molecule,Adenosine deaminase activity Δ [ADO]/min × (−100)
1,B1,54.55
2,B2,48.49
3,B3,67.95
4,B4,41.58
5,B5,33.24

# Same assay, conditions: pH 7
row,Molecule,Adenosine deaminase activity Δ [ADO]/min × (−100)
1,B1,59.68
2,B2,51.90
3,B3,74.68
4,B4,45.98
5,B5,40.08

# Same assay, conditions: pH 7.25
row,Molecule,Adenosine deaminase activity Δ [ADO]/min × (−100)
1,B1,60.07
2,B2,56.12
3,B3,77.81
4,B4,42.69
5,B5,42.28

# Same assay, conditions: pH 7.4
row,Molecule,Adenosine deaminase activity Δ [ADO]/min × (−100)
1,B1,57.15
2,B2,50.44
3,B3,67.77
4,B4,43.37
5,B5,34.66

# Same assay, conditions: pH 7.75
row,Molecule,Adenosine deaminase activity Δ [ADO]/min × (−100)
1,B1,28.28
2,B2,24.42
3,B3,35.97
4,B4,22.29
5,B5,18.46

# Same assay, conditions: pH 8
row,Molecule,Adenosine deaminase activity Δ [ADO]/min × (−100)
1,B1,1.77
2,B2,4.63
3,B3,2.04
4,B4,4.36
5,B5,4.94
